{
  "source": "paper PMC8429565",
  "about": "“Conformational rearrangements enable iterative backbone N-methylation in RiPP biosynthesis” (Nature Communications, 2021)",
  "binders": {"B1": {"name": "SonA borosin binding domain only construct (SonA-BBD; 1-55) (domain or fragment, Shewanella oneidensis MR-1, UniProt Q8EGW2 1-55, looked up)", "chain": "MSGLSDFFTQLGQDAQLMEDYKQNPEAVMRAHGLTDEQINAVMTGDMEKLKTLSG", "notes": "SonA (SO1479) of Shewanella oneidensis MR-1, helical bundle composed of the first 55 amino acids (1-55); The his6 tag is stated for the individual construct; for the co-expression construct it is surmised from the template plasmid pMF1181; also called BBD-SonA; his6-SonA-BBD"}, "B2": {"name": "unmethylated SonA precursor peptide (SonA-0Me), his6-tagged (natural protein, Shewanella oneidensis MR-1, UniProt Q8EGW2 1-71, looked up)", "chain": "MSGLSDFFTQLGQDAQLMEDYKQNPEAVMRAHGLTDEQINAVMTGDMEKLKTLSGDSSYQSYLVISHGNGD"}, "B3": {"name": "doubly α-N-methylated SonA precursor peptide (SonA-2Me), his6-tagged (natural protein, Shewanella oneidensis MR-1, UniProt Q8EGW2 1-71, looked up)", "chain": "B2 chain", "modifications": "N-methyl-L-leucine (MLE) at 63; N-methyl-L-isoleucine (IML) at 65 (backbone α-N-methylations)", "notes": "SonA (SO1479), borosin precursor peptide of Shewanella oneidensis MR-1; BBD leader 1-53, linker 54-61, core peptide 62-71; also called doubly methylated SonA; SO1479; source: E. coli BL21(DE3), co-expressed from pET28b with SonM, purified (Ni-NTA or HisTrap, Superdex 200 SEC)"}, "B4": {"name": "his6-SonM, wild type, individually expressed (enzyme, Shewanella oneidensis MR-1, UniProt Q8EGW3 1-263, looked up)", "chain": "MGSLVCVGTGLQLAGQISVLSRSYIEHADIVFSLLPDGFSQRWLTKLNPNVINLQQFYAQNGEVKNRRDTYEQMVNAILDAVRAGKKTVCALYGHPGVFACVSHMAITRAKAEGFSAKMEPGISAEACLWADLGIDPGNSGHQSFEASQFMFFNHVPDPTTHLLLWQIAIAGEHTLTQFHTSSDRLQILVEQLNQWYPLDHEVVIYEAANLPIQAPRIERLPLANLPQAHLMPISTLLIPPAKKLEYNYAILAKLGIGPEDLG", "notes": "SonM (SO1478), α-N-methyltransferase of Shewanella oneidensis MR-1, 263 AA; gene sonM amplified from genomic DNA; also called wt; source: E. coli BL21(DE3), pET28b, purified (Ni-NTA or HisTrap, Superdex 200 SEC); not shown: His6, N-terminal, kept"}},
  "key": {"[1]": {"target": "B4", "assay": "enzyme inhibition kinetics (continuous coupled methyltransferase assay, A340); apparent Ki; 5 μM wt SonM, saturating SAM (1 mM), varying concentrations of SonA and of the inhibitor (SonA-BBD or SonA-2Me); non-linear regression in GraphPad Prism 8", "conditions": "both partners purified"}, "[2]": {"target": "T1, his6-SonM-Y71F, individually expressed (Shewanella oneidensis MR-1, UniProt Q8EGW3 1-263, SonM-Y71F)", "T1 sequence (looked up)": "B4 chain with Y71F", "assay": "cell-based or functional assay"}, "[3]": {"target": "T2, his6-SonM-R67K, individually expressed (Shewanella oneidensis MR-1, UniProt Q8EGW3 1-263, SonM-R67K)", "T2 sequence (looked up)": "B4 chain with R67K", "assay": "cell-based or functional assay"}, "[4]": {"target": "B4", "assay": "cell-based or functional assay"}, "[5]": {"target": "T3, his6-SonM-Y58F, individually expressed (Shewanella oneidensis MR-1, UniProt Q8EGW3 1-263, SonM-Y58F)", "T3 sequence (looked up)": "B4 chain with Y58F", "assay": "cell-based or functional assay"}, "[6]": {"target": "T4, his6-SonM-Y93F, individually expressed (Shewanella oneidensis MR-1, UniProt Q8EGW3 1-263, SonM-Y93F)", "T4 sequence (looked up)": "B4 chain with Y93F", "assay": "cell-based or functional assay"}, "[7]": {"target": "the molecule itself", "assay": "SEC; oligomeric state of individually expressed and purified SonM and SonA (Supplementary Fig. 6); Superdex 200 in 50 mM HEPES pH 8, 300 mM NaCl, 10% glycerol is the sizing step of the purification"}},
  "note": "Positions count from the first letter of the chain named.",
  "data": [
    {"binder": "B1", "values": [
      {"measurement": "Ki", "setting": "[1]", "result": 3.9, "unit": "µM"}
    ]},
    {"binder": "B2", "values": [
      {"measurement": "apparent KM for SonA, coupled methyltransferase kinetics assay, saturating SAM", "setting": "[2]", "result": 9.6, "unit": "µM"},
      {"measurement": "apparent KM for SonA, coupled methyltransferase kinetics assay, saturating SAM", "setting": "[3]", "result": 18, "unit": "µM"},
      {"measurement": "apparent KM for SonA, coupled methyltransferase kinetics assay, saturating SAM", "setting": "[4]", "result": 8.2, "unit": "µM"},
      {"measurement": "apparent KM for SonA, coupled methyltransferase kinetics assay, saturating SAM", "setting": "[5]", "result": 7.6, "unit": "µM"},
      {"measurement": "apparent KM for SonA, coupled methyltransferase kinetics assay, saturating SAM", "setting": "[6]", "result": 6.2, "unit": "µM"}
    ]},
    {"binder": "B3", "values": [
      {"measurement": "Ki", "setting": "[1]", "result": 160, "unit": "µM"}
    ]},
    {"binder": "B4", "values": [
      {"measurement": "stoichiometry N", "setting": "[7]", "result": 2}
    ]}
  ]
}
